Columns and labels:
[1] = biological target: endogenous ARNT2 (HEK293T) (human (endogenous in HEK293T)) (UniProt Q9HBZ2)
[2] = biological target: ARNT2, overexpressed (human Aryl hydrocarbon Receptor Nuclear Translator 2) (human, UniProt Q9HBZ2 1-717); test: cell-based or functional assay
ARNT2, overexpressed (human Aryl hydrocarbon Receptor Nuclear Translator 2), sequence (Q9HBZ2 whole entry): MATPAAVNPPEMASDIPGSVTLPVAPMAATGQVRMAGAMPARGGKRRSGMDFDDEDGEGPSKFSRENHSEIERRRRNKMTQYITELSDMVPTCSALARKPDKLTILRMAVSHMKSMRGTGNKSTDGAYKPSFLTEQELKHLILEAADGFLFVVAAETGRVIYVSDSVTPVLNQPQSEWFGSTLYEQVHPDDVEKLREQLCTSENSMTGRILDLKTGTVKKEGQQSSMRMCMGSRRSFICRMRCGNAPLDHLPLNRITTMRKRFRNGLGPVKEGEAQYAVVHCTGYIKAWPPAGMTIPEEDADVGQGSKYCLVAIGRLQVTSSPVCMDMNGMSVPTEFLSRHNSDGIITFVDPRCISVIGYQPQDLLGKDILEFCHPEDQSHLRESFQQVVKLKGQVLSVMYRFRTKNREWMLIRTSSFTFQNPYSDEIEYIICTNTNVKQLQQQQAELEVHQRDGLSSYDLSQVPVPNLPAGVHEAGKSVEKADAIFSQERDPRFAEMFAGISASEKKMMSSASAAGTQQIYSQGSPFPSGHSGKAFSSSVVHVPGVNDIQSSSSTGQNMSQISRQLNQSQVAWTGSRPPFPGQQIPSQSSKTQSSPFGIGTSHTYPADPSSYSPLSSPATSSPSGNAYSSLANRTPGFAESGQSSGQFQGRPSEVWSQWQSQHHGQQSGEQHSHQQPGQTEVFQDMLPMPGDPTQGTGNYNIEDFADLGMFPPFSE

endogenous ARNT2 (HEK293T) (human (endogenous in HEK293T)), sequence (Q9HBZ2 whole entry): as above

| induction of BDNF exon I mRNA in 293TREX cells (quantitative real-time PCR), reduction against WT NPAS4 [1] [%] | activity on the 6xCME-Luc luciferase reporter gene in HEK293T cells, percent of WT NPAS4 [2] | Binder |
| --- | --- | --- |
| 90 |  | NPAS4.F147S-mycFlag (natural protein) MYRSTKGASKARRDQINAEIRNLKELLPLAEADKVRLSYLHIMSLACIYTRKGVFFAGGTPLAGPTGLLSAQELEDIVAALPGFLLVFTAEGKLLYLSESVSEHLGHSMVDLVAQGDSIYDIIDPADHLTVRQQLTLPSALDTDRLSRCRFNTSKSLRRQSAGNKLVLIRGRFHAHPPGAYWAGNPVFTAFCAPLEPRPRPGPGPGPGPASLFLAMFQSRHAKDLALLDISESVLIYLGFERSELLCKSWYGLLHPEDLAHASAQHYRLLAESGDIQAEMVVRLQAKTGGWAWIYCLLYSEGPEGPITANNYPISDMEAWSLRQQLNSEDTQAAYVLGTPTMLPSFPENILSQEECSSTNPLFTAALGAPRSTSFPSAPELSVVSASEELPRPSKELDFSYLTFPSGPEPSLQAELSKDLVCTPPYTPHQPGGCAFLFSLHEPFQTHLPTPSSTLQEQLTPSTATFSDQLTPSSATFPDPLTSPLQGQLTETSVRSYEDQLTPCTSTFPDQLLPSTATFPEPLGSPAHEQLTPPSTAFQAHLDSPSQTFPEQLSPNPTKTYFAQEGCSFLYEKLPPSPSSPGNGDCTLLALAQLRGPLSVDVPLVPEGLLTPEASPVKQSFFHYSEKEQNEIDRLIQQISQLAQGMDRPFSAEAGTGGLEPLGGLEPLDSNLSLSGAGPPVLSLDLKPWKCQELDFLADPDNMFLEETPVEDIFMDLSTPDPSEEWGSGDPEAEGPGGAPSPCNNLSPEDHSFLEDLATYETAFETGVSAFPYDGFTDELHQLQSQVQDSFHEDGSGGEPTF |
|  | ~65 % of wt | NPAS4.F147A-mycFlag (natural protein, human, UniProt Q8IUM7 1-802, looked up) MYRSTKGASKARRDQINAEIRNLKELLPLAEADKVRLSYLHIMSLACIYTRKGVFFAGGTPLAGPTGLLSAQELEDIVAALPGFLLVFTAEGKLLYLSESVSEHLGHSMVDLVAQGDSIYDIIDPADHLTVRQQLTLPSALDTDRLARCRFNTSKSLRRQSAGNKLVLIRGRFHAHPPGAYWAGNPVFTAFCAPLEPRPRPGPGPGPGPASLFLAMFQSRHAKDLALLDISESVLIYLGFERSELLCKSWYGLLHPEDLAHASAQHYRLLAESGDIQAEMVVRLQAKTGGWAWIYCLLYSEGPEGPITANNYPISDMEAWSLRQQLNSEDTQAAYVLGTPTMLPSFPENILSQEECSSTNPLFTAALGAPRSTSFPSAPELSVVSASEELPRPSKELDFSYLTFPSGPEPSLQAELSKDLVCTPPYTPHQPGGCAFLFSLHEPFQTHLPTPSSTLQEQLTPSTATFSDQLTPSSATFPDPLTSPLQGQLTETSVRSYEDQLTPCTSTFPDQLLPSTATFPEPLGSPAHEQLTPPSTAFQAHLDSPSQTFPEQLSPNPTKTYFAQEGCSFLYEKLPPSPSSPGNGDCTLLALAQLRGPLSVDVPLVPEGLLTPEASPVKQSFFHYSEKEQNEIDRLIQQISQLAQGMDRPFSAEAGTGGLEPLGGLEPLDSNLSLSGAGPPVLSLDLKPWKCQELDFLADPDNMFLEETPVEDIFMDLSTPDPSEEWGSGDPEAEGPGGAPSPCNNLSPEDHSFLEDLATYETAFETGVSAFPYDGFTDELHQLQSQVQDSFHEDGSGGEPTF |

Reference: publication PMC3894988, “Human Variants in the Neuronal Basic Helix-Loop-Helix/Per-Arnt-Sim (bHLH/PAS) Transcription Factor Complex NPAS4/ARNT2 Disrupt Function” (PLoS ONE, 2014)
